Measurements from PMC6648351 (Nucleic Acids Research, 2019).

Biological target: the molecule itself
Test: SEC

Protein	stoichiometry N
gp577 mutant D92A (enzyme, Acanthamoeba polyphaga mimivirus, UniProt A0A0G2YDL0 1-470, looked up) MAEDKIEAYNKSITRTKYFKMDDAINSPICSKTVFIIANERITKENRIGRYYTVFPSFKKFLKKRDSYPHCHEIIIDHINNKTNIAGRLVFAFDIKITDSSILKDTGLIDKNDNQPIMFNSKTLSITKIPLNFKQQIENTIIETIDQYFHDIDKTILEFIWSTSQNPNKFSKHLTVKNLYFDDWITMSKLFYKLFCKVWDNQYYWISSKDLVDSQIVRNKGSLRMVGSTKINGYPLVFDNKNHTLPDSLIRIYFRNHREKEQLVTRNNINKDIINQFLESNDDIEHHRSIDIIDRHFTKIRNPSYDPIIYQKAFEIYDAIHPNIFKMGKVNGKYLTLIRLKPHKCFLSNKFHEQENAYLYISMSDTTYKISFGCYRFCSKKKMEYLGSLIQGNLMKNSPYIDDTDGTTKKHDFNINIKFLSDSDDESINAPNNIKSLESIKSSKSKKQLKSSKSKKPIKHTKTKNIYVET	2
gp577 mutant D213A (enzyme, Acanthamoeba polyphaga mimivirus, UniProt A0A0G2YDL0 1-470, looked up) MAEDKIEAYNKSITRTKYFKMDDAINSPICSKTVFIIANERITKENRIGRYYTVFPSFKKFLKKRDSYPHCHEIIIDHINNKTNIAGRLVFDFDIKITDSSILKDTGLIDKNDNQPIMFNSKTLSITKIPLNFKQQIENTIIETIDQYFHDIDKTILEFIWSTSQNPNKFSKHLTVKNLYFDDWITMSKLFYKLFCKVWDNQYYWISSKDLVASQIVRNKGSLRMVGSTKINGYPLVFDNKNHTLPDSLIRIYFRNHREKEQLVTRNNINKDIINQFLESNDDIEHHRSIDIIDRHFTKIRNPSYDPIIYQKAFEIYDAIHPNIFKMGKVNGKYLTLIRLKPHKCFLSNKFHEQENAYLYISMSDTTYKISFGCYRFCSKKKMEYLGSLIQGNLMKNSPYIDDTDGTTKKHDFNINIKFLSDSDDESINAPNNIKSLESIKSSKSKKQLKSSKSKKPIKHTKTKNIYVET	2
gp577 mutant D239A (enzyme, Acanthamoeba polyphaga mimivirus, UniProt A0A0G2YDL0 1-470, looked up) MAEDKIEAYNKSITRTKYFKMDDAINSPICSKTVFIIANERITKENRIGRYYTVFPSFKKFLKKRDSYPHCHEIIIDHINNKTNIAGRLVFDFDIKITDSSILKDTGLIDKNDNQPIMFNSKTLSITKIPLNFKQQIENTIIETIDQYFHDIDKTILEFIWSTSQNPNKFSKHLTVKNLYFDDWITMSKLFYKLFCKVWDNQYYWISSKDLVDSQIVRNKGSLRMVGSTKINGYPLVFANKNHTLPDSLIRIYFRNHREKEQLVTRNNINKDIINQFLESNDDIEHHRSIDIIDRHFTKIRNPSYDPIIYQKAFEIYDAIHPNIFKMGKVNGKYLTLIRLKPHKCFLSNKFHEQENAYLYISMSDTTYKISFGCYRFCSKKKMEYLGSLIQGNLMKNSPYIDDTDGTTKKHDFNINIKFLSDSDDESINAPNNIKSLESIKSSKSKKQLKSSKSKKPIKHTKTKNIYVET	2
gp577 mutant H173A (enzyme, Acanthamoeba polyphaga mimivirus, UniProt A0A0G2YDL0 1-470, looked up) MAEDKIEAYNKSITRTKYFKMDDAINSPICSKTVFIIANERITKENRIGRYYTVFPSFKKFLKKRDSYPHCHEIIIDHINNKTNIAGRLVFDFDIKITDSSILKDTGLIDKNDNQPIMFNSKTLSITKIPLNFKQQIENTIIETIDQYFHDIDKTILEFIWSTSQNPNKFSKALTVKNLYFDDWITMSKLFYKLFCKVWDNQYYWISSKDLVDSQIVRNKGSLRMVGSTKINGYPLVFDNKNHTLPDSLIRIYFRNHREKEQLVTRNNINKDIINQFLESNDDIEHHRSIDIIDRHFTKIRNPSYDPIIYQKAFEIYDAIHPNIFKMGKVNGKYLTLIRLKPHKCFLSNKFHEQENAYLYISMSDTTYKISFGCYRFCSKKKMEYLGSLIQGNLMKNSPYIDDTDGTTKKHDFNINIKFLSDSDDESINAPNNIKSLESIKSSKSKKQLKSSKSKKPIKHTKTKNIYVET	2
gp577 mutant D151A (enzyme, Acanthamoeba polyphaga mimivirus, UniProt A0A0G2YDL0 1-470, looked up) MAEDKIEAYNKSITRTKYFKMDDAINSPICSKTVFIIANERITKENRIGRYYTVFPSFKKFLKKRDSYPHCHEIIIDHINNKTNIAGRLVFDFDIKITDSSILKDTGLIDKNDNQPIMFNSKTLSITKIPLNFKQQIENTIIETIDQYFHAIDKTILEFIWSTSQNPNKFSKHLTVKNLYFDDWITMSKLFYKLFCKVWDNQYYWISSKDLVDSQIVRNKGSLRMVGSTKINGYPLVFDNKNHTLPDSLIRIYFRNHREKEQLVTRNNINKDIINQFLESNDDIEHHRSIDIIDRHFTKIRNPSYDPIIYQKAFEIYDAIHPNIFKMGKVNGKYLTLIRLKPHKCFLSNKFHEQENAYLYISMSDTTYKISFGCYRFCSKKKMEYLGSLIQGNLMKNSPYIDDTDGTTKKHDFNINIKFLSDSDDESINAPNNIKSLESIKSSKSKKQLKSSKSKKPIKHTKTKNIYVET	2
